Data published in the DeepSol protein solubility set.

Experiment: soluble on expression in E. coli; label from the status in PepcDB or PDB records

Soluble on expression in E. coli, not soluble:
MGSDKIHHHHHHMRLPQKMFKIDTYLSPGEAFHFVRKELSEASPVLEHDHDYYELFLIQQGQVYHWINGLEEMLEPGHMVFVRPSDRHALQGAPGTGAKILNVMFRTQTAAHLVTRYADVFGGRFFWQPGPLPVTLRLHGPQRERAINSMLTLDTSFRNLARIELFLLSVMTHVLDTGEIVDGRAPGWLLQACHAAREPRVFRQGADGFLHAAGRSQAHVCRQARRYLGLSPTQYVNRIRIQHAAMLLAGTERGLPDIAADCGFENLSYFHRLFREQYGTTPRGYRHRHVRPIAPL
MGSDKIHHHHHHMRMLRRGSRGNDVAEVQVRLSELGYIPGPIDGIFGPKTEAAVIRFQKDRGLNPDGIVGPLTYQALFQPGPQPGYVLYTIKAGDTFYKLSLAFGVSLNEIIAANPGVDPYQLRIGQQVRIPKGGPGRRHTFSAWIPYWVQQEAMAVVRQHAELMTTLSPFWYELTPTGDLLLYPNAEDSSLIEFARSRGIELIPLVANNYDRQLISTVLNNPDLRQRNIAQIVNKVRSMNYTGIEIDYENIAAADRELFVLFLRELKAALAPYNKKLYVAIQAKTRADEPVSIGHDYGGIGAAVDVVRLMLYDYSWDNPGPIAPASWIRQVLDYAVTVIPPAKLEAGLPTYGYDWGTTRRSITYDDAIRLAQQHGAQIIQDPQRGPHFNYTDADGIAHQVWFTNALNFATFVDIVNQYNLRGISIWHPGGDDPQIYTVIQDRLE
MGSDKIHHHHHHMRNIVFTGKGGVGKTSIAASTAVRAAALGYKTLVISTDPAHSLGDSFDIELGPSPVKVAENLWGQEVSVYGDLSLNWEVVREHFAHLMEVQGIEGIYVEEMGVLPGMEELFSLSYIKRYNESSEYDLLVVDCAPTGETLRLLSIPETFGWMLKLMRNMEKYVVKPVIRPLSKRISRLHDFVPDTDVYDQVDHLFSSVEGIIELLSDNSKTTVRLVMNPEKMVVKESMRALTYLNLYNITIDQIVINRVYMDDVDGQYFKGWKEIQKKYIAEIESSFGPIPITRVPLFRTEVLGLEMLKKVGETVYGDRNPLDIFYHEEHTEIVKPGEGHYVMKLRLPFVFDNRMEANIVQVGDLLTIRIGNHQKSVVLPTFLAGMKVTHAGYEEKWLAIEFRKKETAK
MGSDKIHHHHHHMRPTENGVLHLRKKFVASLLAVAIASTTACAQLGISKEQAGTVIGGLAGVAIGSTMGSGNGKIAAALIAGGIGAYVGNRIGHMLDEKDQQALALRTQEVLSQQQTTASAQPVTWKSDHSGATAQIVPGKEYTKTKQVEVKRAPKIQAVPSMKLINEPYVTISDNLNVRAAPNQAGEKVGSLKNHTEFTAVGSTGDWILVGRKGVTVGYVHKNYVEPKAQAVAKRVTPAVNLDELDVAASKETQGFDLDSVQSLPTQTVAAEAACRPVTVSLKSQSGQTEQEQNTFCKQANGTWELI
MGSDKIHHHHHHMRSDLRIAIVANEKRGDGNIELRLQSKGYQVVTLTTPSSVMGFIYSDPPDVILMDLSSPDEAFLGIIRSLKDDFFFSTIPVIGMMPEPAAEFFDWDEYPLDDFVTFPLNFRELFTRIVLSLRRLRRVFDNNPLTRLPGNTSIQRAIEQTVGKPMAVCYVDINHFKQYNDVYGFAHGDEVLRMLGRIMSNAVKDAGDGFAGHIGGDDFVFIVPFDQAEVVAGRIIANFTAVVSELFNEEEKRNGFFLAHDRKGNEEKVPLMGVAIAIVPTDSPKIGHYAKVAEVAAELKTLAKQSHKSCFVVDRRKY
MGSDKIHHHHHHMRTLFSQQQWIDMKVLVTGATSGLGRNAVEFLCQKGISVRATGRNEAMGKLLEKMGAEFVPADLTELVSSQAKVMLAGIDTLWHCSSFTSPWGTQQAFDLANVRATRRLGEWAVAWGVRNFIHISSPSLYFDYHHHRDIKEDFRPHRFANEFARSKAASEEVINMLSQANPQTRFTILRPQSLFGPHDKVFIPRLAHMMHHYGSILLPHGGSALVDMTYYENAVHAMWLASQEACDKLPSGRVYNITNGEHRTLRSIVQKLIDELNIDCRIRSVPYPMLDMIARSMERLGRKSAKEPPLTHYGVSKLNFDFTLDITRAQEELGYQPVITLDEGIEKTAAWLRDHGKLPR
